Among the data in article PMC6351828 are response and ratio to parent values, retold here.

Test [1] addresses Purified recombinant LC3 protein, Q9GZQ8. In words: ELISA. As to conditions: chain shown with the change, read off a plot. In general terms: ELISA stands for enzyme-linked immunosorbent assay.
The target in another test is LC3‐GFP, Q9GZQ8. In words: co-immunoprecipitation (anti-GFP agarose) with quantified immunoblot. As to conditions: chain shown with the change; HeLa cells co-transfected with LC3-GFP and DISC1-Flag constructs; parent: 1.0; read off a plot.

With PGSHSAFTSSAAAARLSLGS [DISC1 FSFI peptide (a.a.200–219) F210A; S211A; F212A; I213A], the response in test [1] (LC3B 10 nM, parent: est. 0.68) is 0.1 OD (450 nm); in test [1] (LC3B 50 nM, parent: est. 1.3) it was 0.12 OD (450 nm); in test [1] (LC3B 100 nM, parent: est. 2.4), 0.12 OD (450 nm).

B1: Disrupted‐in‐schizophrenia‐1 (DISC1)‐Flag, wild type, Q9NRI5 F210A; S211A; F212A; I213A (protein)
chain: MPGGGPQGAPAAAGGGGVSHRAGSRDCLPPAACFRRRRLARRPGYMRSSTGPGIGFLSPAVGTLFRFPGGVSGEESHHSESRARQCGLDSRGLLVRSPVSKSAAAPTVTSVRGTSAHFGIQLRGGTRLPDRLSWPCGPGSAGWQQEFAAMDSSETLDASWEAACSDGARRVRAAGSLPSAELSSNSCSPGCGPEVPPTPPGSHSAFTSSAAAARLSLGSAGERGEAEGCPPSREAESHCQSPQEMGAKAASLDGPHEDPRCLSRPFSLLATRVSADLAQAARNSSRPERDMHSLPDMDPGSSSSLDPSLAGCGGDGSSGSGDAHSWDTLLRKWEPVLRDCLLRNRRQMEVISLRLKLQKLQEDAVENDDYDKAETLQQRLEDLEQEKISLHFQLPSRQPALSSFLGHLAAQVQAALRRGATQQASGDDTHTPLRMEPRLLEPTAQDSLHVSITRRDWLLQEKQQLQKEIEALQARMFVLEAKDQQLRREIEEQEQQLQWQGCDLTPLVGQLSLGQLQEVSKALQDTLASAGQIPFHAEPPETIRSLQERIKSLNLSLKEITTKVCMSEKFCSTLRKKVNDIETQLPALLEAKMHAISGNHFWTAKDLTEEIRSLTSEREGLEGLLSKLLVLSSRNVKKLGSVKEDYNRLRREVEHQETAYETSVKENTMKYMETLKNKLCSCKCPLLGKVWEADLEACRLLIQSLQLQEARGSLSVEDERQMDDLEGAAPPIPPRLHSEDKRKTPLKVLEEWKTHLIPSLHCAGGEQKEESYILSAELGEKCEDIGKKLLYLEDQLHTAIHSHDEDLIQSLRRELQMVKETLQAMILQLQPAKEAGEREAAASCMTAGVHEAQA
For B1, in the test with LC3‐GFP, Q9GZQ8, the ratio to parent came to 0.21.

B2: Disrupted‐in‐schizophrenia‐1 (DISC1)‐Flag, wild type, Q9NRI5 W327A; D328A; T329A; L330A (protein)
chain: MPGGGPQGAPAAAGGGGVSHRAGSRDCLPPAACFRRRRLARRPGYMRSSTGPGIGFLSPAVGTLFRFPGGVSGEESHHSESRARQCGLDSRGLLVRSPVSKSAAAPTVTSVRGTSAHFGIQLRGGTRLPDRLSWPCGPGSAGWQQEFAAMDSSETLDASWEAACSDGARRVRAAGSLPSAELSSNSCSPGCGPEVPPTPPGSHSAFTSSFSFIRLSLGSAGERGEAEGCPPSREAESHCQSPQEMGAKAASLDGPHEDPRCLSRPFSLLATRVSADLAQAARNSSRPERDMHSLPDMDPGSSSSLDPSLAGCGGDGSSGSGDAHSAAAALRKWEPVLRDCLLRNRRQMEVISLRLKLQKLQEDAVENDDYDKAETLQQRLEDLEQEKISLHFQLPSRQPALSSFLGHLAAQVQAALRRGATQQASGDDTHTPLRMEPRLLEPTAQDSLHVSITRRDWLLQEKQQLQKEIEALQARMFVLEAKDQQLRREIEEQEQQLQWQGCDLTPLVGQLSLGQLQEVSKALQDTLASAGQIPFHAEPPETIRSLQERIKSLNLSLKEITTKVCMSEKFCSTLRKKVNDIETQLPALLEAKMHAISGNHFWTAKDLTEEIRSLTSEREGLEGLLSKLLVLSSRNVKKLGSVKEDYNRLRREVEHQETAYETSVKENTMKYMETLKNKLCSCKCPLLGKVWEADLEACRLLIQSLQLQEARGSLSVEDERQMDDLEGAAPPIPPRLHSEDKRKTPLKVLEEWKTHLIPSLHCAGGEQKEESYILSAELGEKCEDIGKKLLYLEDQLHTAIHSHDEDLIQSLRRELQMVKETLQAMILQLQPAKEAGEREAAASCMTAGVHEAQA
Turning to B2, the ratio to parent in the test with LC3‐GFP, Q9GZQ8 was found to be 0.9.

B3: Disrupted‐in‐schizophrenia‐1 (DISC1)‐Flag, wild type, Q9NRI5 Y646A; N647A; R648A; L649A (protein)
chain: MPGGGPQGAPAAAGGGGVSHRAGSRDCLPPAACFRRRRLARRPGYMRSSTGPGIGFLSPAVGTLFRFPGGVSGEESHHSESRARQCGLDSRGLLVRSPVSKSAAAPTVTSVRGTSAHFGIQLRGGTRLPDRLSWPCGPGSAGWQQEFAAMDSSETLDASWEAACSDGARRVRAAGSLPSAELSSNSCSPGCGPEVPPTPPGSHSAFTSSFSFIRLSLGSAGERGEAEGCPPSREAESHCQSPQEMGAKAASLDGPHEDPRCLSRPFSLLATRVSADLAQAARNSSRPERDMHSLPDMDPGSSSSLDPSLAGCGGDGSSGSGDAHSWDTLLRKWEPVLRDCLLRNRRQMEVISLRLKLQKLQEDAVENDDYDKAETLQQRLEDLEQEKISLHFQLPSRQPALSSFLGHLAAQVQAALRRGATQQASGDDTHTPLRMEPRLLEPTAQDSLHVSITRRDWLLQEKQQLQKEIEALQARMFVLEAKDQQLRREIEEQEQQLQWQGCDLTPLVGQLSLGQLQEVSKALQDTLASAGQIPFHAEPPETIRSLQERIKSLNLSLKEITTKVCMSEKFCSTLRKKVNDIETQLPALLEAKMHAISGNHFWTAKDLTEEIRSLTSEREGLEGLLSKLLVLSSRNVKKLGSVKEDAAAARREVEHQETAYETSVKENTMKYMETLKNKLCSCKCPLLGKVWEADLEACRLLIQSLQLQEARGSLSVEDERQMDDLEGAAPPIPPRLHSEDKRKTPLKVLEEWKTHLIPSLHCAGGEQKEESYILSAELGEKCEDIGKKLLYLEDQLHTAIHSHDEDLIQSLRRELQMVKETLQAMILQLQPAKEAGEREAAASCMTAGVHEAQA
For the molecule B3, in the test with LC3‐GFP, Q9GZQ8, the ratio to parent came out at 1.1.
